In PMC9482650, “Quantitative fragmentomics allow affinity mapping of interactomes” (Nature Communications, 2022):

T1: GRIP1_7, Q9Y3R0
T1 sequence (Q9Y3R0 999-1096, limits assumed, looked up): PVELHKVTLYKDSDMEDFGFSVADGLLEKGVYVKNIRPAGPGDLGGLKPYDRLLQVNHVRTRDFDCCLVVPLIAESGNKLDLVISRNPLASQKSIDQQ

T2: GRIP1_3, Q9Y3R0
T2 sequence (Q9Y3R0 247-346, limits assumed, looked up): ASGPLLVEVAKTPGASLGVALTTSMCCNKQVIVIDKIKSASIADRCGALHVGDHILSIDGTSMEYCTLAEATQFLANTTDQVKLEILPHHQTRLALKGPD

T3: LIN7A, O14910
T3 sequence (O14910 103-200, limits assumed, looked up): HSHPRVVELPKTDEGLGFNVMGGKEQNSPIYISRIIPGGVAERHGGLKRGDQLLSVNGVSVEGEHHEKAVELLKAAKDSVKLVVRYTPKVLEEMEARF

T4: SYNJ2BP, P57105
T4 sequence (P57105 8-110, limits assumed, looked up): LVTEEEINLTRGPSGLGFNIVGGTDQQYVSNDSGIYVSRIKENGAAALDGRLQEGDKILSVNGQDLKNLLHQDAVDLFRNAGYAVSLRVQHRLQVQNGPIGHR

T5: PDZD7_3, Q9H5P4
T5 sequence (Q9H5P4 857-944, limits assumed, looked up): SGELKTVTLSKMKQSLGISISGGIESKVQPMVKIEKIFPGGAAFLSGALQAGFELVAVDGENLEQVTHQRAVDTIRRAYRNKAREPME

T6: CARD11, Q9BXL7
T6 sequence (Q9BXL7 662-765, limits assumed, looked up): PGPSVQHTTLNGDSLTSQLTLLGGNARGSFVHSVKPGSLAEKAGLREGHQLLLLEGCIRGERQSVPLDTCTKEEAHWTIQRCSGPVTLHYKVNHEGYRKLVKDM

T7: MPP7, Q5T2T1
T7 sequence (Q5T2T1 134-230, limits assumed, looked up): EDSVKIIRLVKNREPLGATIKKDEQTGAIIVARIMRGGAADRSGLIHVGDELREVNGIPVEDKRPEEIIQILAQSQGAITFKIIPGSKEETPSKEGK

T8: DVL3, Q92997
T8 sequence (Q92997 244-331, limits assumed, looked up): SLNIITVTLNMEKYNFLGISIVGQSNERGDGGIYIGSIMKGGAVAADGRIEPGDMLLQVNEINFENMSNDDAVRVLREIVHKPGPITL

T9: SNTG2, Q9NY99
T9 sequence (Q9NY99 68-166, limits assumed, looked up): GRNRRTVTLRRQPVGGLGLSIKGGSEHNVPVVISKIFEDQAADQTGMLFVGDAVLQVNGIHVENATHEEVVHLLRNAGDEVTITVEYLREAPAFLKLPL

T10: GRIP1_4, Q9Y3R0
T10 sequence (Q9Y3R0 467-571, limits assumed, looked up): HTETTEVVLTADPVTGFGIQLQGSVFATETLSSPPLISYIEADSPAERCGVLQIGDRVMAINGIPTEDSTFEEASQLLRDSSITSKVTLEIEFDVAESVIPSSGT


Tests used:
Test in all cases: holdup assay
Parameters in all cases: key: below the threshold = too weak to quantify, mostly under pKd 3.1 to 4
Settings in all cases: plain residues with an end cap or a label only (N-terminal biotin on a linker: ado-ado)
GRIP1_7, Q9Y3R0 = biological target: T1, GRIP1_7, Q9Y3R0
DLG4_3, P78352 = biological target: DLG4_3, P78352
DLG4_3, P78352, sequence (P78352 306-403): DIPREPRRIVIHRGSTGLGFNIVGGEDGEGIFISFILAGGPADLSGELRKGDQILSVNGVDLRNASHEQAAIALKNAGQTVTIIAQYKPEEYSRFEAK

GRIP1_3, Q9Y3R0 = biological target: T2, GRIP1_3, Q9Y3R0
DLG4_2, P78352 = biological target: DLG4_2, P78352
DLG4_2, P78352, sequence (P78352 155-259): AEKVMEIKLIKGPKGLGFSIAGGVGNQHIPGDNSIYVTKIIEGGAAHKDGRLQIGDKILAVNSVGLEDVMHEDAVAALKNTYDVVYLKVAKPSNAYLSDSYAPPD

LIN7A, O14910 = biological target: T3, LIN7A, O14910
SYNJ2BP, P57105 = biological target: T4, SYNJ2BP, P57105
SNX27, Q96L92 = biological target: SNX27, Q96L92
MAST1, Q9Y2H9 = biological target: MAST1, Q9Y2H9
MAST1, Q9Y2H9, sequence (Q9Y2H9 962-1065): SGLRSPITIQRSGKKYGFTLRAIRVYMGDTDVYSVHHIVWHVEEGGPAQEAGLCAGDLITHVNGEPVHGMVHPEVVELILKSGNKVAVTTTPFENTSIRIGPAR

PDZD7_3, Q9H5P4 = biological target: T5, PDZD7_3, Q9H5P4
Inadl_2, Q8NI35 = biological target: Inadl_2, Q8NI35
Inadl_2, Q8NI35, sequence (Q8NI35 238-335): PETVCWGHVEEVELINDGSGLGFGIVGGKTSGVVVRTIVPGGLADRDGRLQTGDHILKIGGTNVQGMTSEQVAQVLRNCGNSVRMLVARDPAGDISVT

IL16_3, Q14005 = biological target: IL16_3, Q14005
IL16_3, Q14005, sequence (Q14005 1107-1207): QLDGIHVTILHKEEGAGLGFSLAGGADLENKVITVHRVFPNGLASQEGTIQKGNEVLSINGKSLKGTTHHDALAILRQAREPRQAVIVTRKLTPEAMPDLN

MAGI1_2, Q96QZ7 = biological target: MAGI1_2, Q96QZ7
MAGI1_2, Q96QZ7, sequence (Q96QZ7 456-580): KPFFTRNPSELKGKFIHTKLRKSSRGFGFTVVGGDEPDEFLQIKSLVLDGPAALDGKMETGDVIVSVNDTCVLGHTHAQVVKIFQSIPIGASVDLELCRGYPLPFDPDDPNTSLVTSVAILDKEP

GRIP2_4, Q9C0E4 = biological target: GRIP2_4, Q9C0E4
GRIP2_4, Q9C0E4, sequence (Q9C0E4 446-548): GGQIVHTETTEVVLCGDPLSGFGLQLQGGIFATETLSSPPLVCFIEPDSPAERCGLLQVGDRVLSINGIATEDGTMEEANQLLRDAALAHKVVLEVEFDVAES

CARD11, Q9BXL7 = biological target: T6, CARD11, Q9BXL7
IL16_1, Q14005 = biological target: IL16_1, Q14005
IL16_1, Q14005, sequence (Q14005 210-306): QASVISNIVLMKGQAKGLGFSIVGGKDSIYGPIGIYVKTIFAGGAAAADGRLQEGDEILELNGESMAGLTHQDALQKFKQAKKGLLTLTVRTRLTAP

MPP7, Q5T2T1 = biological target: T7, MPP7, Q5T2T1
FRMPD2_1, Q68DX3 = biological target: FRMPD2_1, Q68DX3
FRMPD2_1, Q68DX3, sequence (Q68DX3 770-861): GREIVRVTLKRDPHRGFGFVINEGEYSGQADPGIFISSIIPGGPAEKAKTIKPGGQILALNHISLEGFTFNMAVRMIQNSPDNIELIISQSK

GRIP2_7, Q9C0E4 = biological target: GRIP2_7, Q9C0E4
GRIP2_7, Q9C0E4, sequence (Q9C0E4 934-1023): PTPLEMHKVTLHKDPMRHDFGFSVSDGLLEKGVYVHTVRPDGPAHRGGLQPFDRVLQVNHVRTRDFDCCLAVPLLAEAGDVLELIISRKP

GRID2IP_2, A4D2P6 = biological target: GRID2IP_2, A4D2P6
GRID2IP_2, A4D2P6, sequence (A4D2P6 272-370): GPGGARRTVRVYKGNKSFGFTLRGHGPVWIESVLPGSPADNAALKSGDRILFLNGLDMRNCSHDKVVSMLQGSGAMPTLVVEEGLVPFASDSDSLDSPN

NHERF4_2, Q86UT5 = biological target: NHERF4_2, Q86UT5
NHERF4_2, Q86UT5, sequence (Q86UT5 220-308): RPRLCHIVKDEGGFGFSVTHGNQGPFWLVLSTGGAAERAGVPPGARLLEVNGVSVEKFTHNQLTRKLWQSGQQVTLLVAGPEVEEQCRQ

DVL3, Q92997 = biological target: T8, DVL3, Q92997
SNTG2, Q9NY99 = biological target: T9, SNTG2, Q9NY99
NHERF4_1, Q86UT5-2 = biological target: NHERF4_1, Q86UT5-2
NHERF4_1, Q86UT5-2, sequence (Q86UT5 other isoform, or with tags, fused parts or gaps): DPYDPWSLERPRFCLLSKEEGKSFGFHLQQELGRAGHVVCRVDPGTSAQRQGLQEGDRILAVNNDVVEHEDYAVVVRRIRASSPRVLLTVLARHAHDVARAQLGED

GRIP1_4, Q9Y3R0 = biological target: T10, GRIP1_4, Q9Y3R0
HTRA2, O43464 = biological target: HTRA2, O43464
HTRA2, O43464, sequence (O43464 355-458): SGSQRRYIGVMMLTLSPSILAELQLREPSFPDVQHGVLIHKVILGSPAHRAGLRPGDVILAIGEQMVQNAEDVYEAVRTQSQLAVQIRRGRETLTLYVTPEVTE

NHERF4_4, Q86UT5 = biological target: NHERF4_4, Q86UT5
NHERF4_4, Q86UT5, sequence (Q86UT5 464-550): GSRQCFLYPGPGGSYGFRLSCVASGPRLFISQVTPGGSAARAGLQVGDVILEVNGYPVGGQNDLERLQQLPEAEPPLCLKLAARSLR

DLG1_2, Q12959 = biological target: DLG1_2, Q12959
DLG1_2, Q12959, sequence (Q12959 314-412): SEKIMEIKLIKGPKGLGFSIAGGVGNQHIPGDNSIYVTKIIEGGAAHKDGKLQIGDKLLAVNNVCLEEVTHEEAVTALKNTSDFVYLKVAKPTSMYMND

FRMPD2_3, Q68DX3 = biological target: FRMPD2_3, Q68DX3
FRMPD2_3, Q68DX3, sequence (Q68DX3 1073-1166): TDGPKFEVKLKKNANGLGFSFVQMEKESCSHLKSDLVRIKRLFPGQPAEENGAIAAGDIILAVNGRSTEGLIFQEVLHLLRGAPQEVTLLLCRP

pKd (GRIP1_7, Q9Y3R0) | pKd (DLG4_3, P78352) | pKd (GRIP1_3, Q9Y3R0) | pKd (DLG4_2, P78352) | pKd (LIN7A, O14910) | pKd (SYNJ2BP, P57105) | pKd (SNX27, Q96L92) | pKd (MAST1, Q9Y2H9) | pKd (PDZD7_3, Q9H5P4) | pKd (Inadl_2, Q8NI35) | pKd (IL16_3, Q14005) | pKd (MAGI1_2, Q96QZ7) | pKd (GRIP2_4, Q9C0E4) | pKd (CARD11, Q9BXL7) | pKd (IL16_1, Q14005) | pKd (MPP7, Q5T2T1) | pKd (FRMPD2_1, Q68DX3) | pKd (GRIP2_7, Q9C0E4) | pKd (GRID2IP_2, A4D2P6) | pKd (NHERF4_2, Q86UT5) | Binder | further results
below the threshold | 4.42 | below the threshold | 5.63 | below the threshold | 5.35 | 4.65 | 4.48 | 4.47 | below the threshold | below the threshold | 4.32 | below the threshold | below the threshold | 4.97 | below the threshold | below the threshold | below the threshold | below the threshold | below the threshold | ARGPPRESEV [FAM110D, Q8TAY7] | pKd (DVL3, Q92997): below the threshold; pKd (SNTG2, Q9NY99): 4.4; pKd (NHERF4_1, Q86UT5-2): below the threshold; pKd (GRIP1_4, Q9Y3R0): below the threshold; pKd (HTRA2, O43464): below the threshold; pKd (NHERF4_4, Q86UT5): below the threshold; pKd (DLG1_2, Q12959): 5.48; pKd (FRMPD2_3, Q68DX3): below the threshold
3.49 | 4.89 | below the threshold | 4.94 | below the threshold | 4.85 | 4.98 | 4.17 | 4.56 | below the threshold | below the threshold | 4.64 | 3.52 | below the threshold | below the threshold | below the threshold | below the threshold | below the threshold | 3.94 | 3.53 | NTLNRKTTPV [CACNG8, Q8WXS5] | pKd (DVL3, Q92997): below the threshold; pKd (SNTG2, Q9NY99): 3.75; pKd (NHERF4_1, Q86UT5-2): 3.67; pKd (GRIP1_4, Q9Y3R0): below the threshold; pKd (HTRA2, O43464): below the threshold; pKd (NHERF4_4, Q86UT5): 3.99; pKd (DLG1_2, Q12959): 5.05; pKd (FRMPD2_3, Q68DX3): below the threshold
below the threshold | 3.72 | below the threshold | 3.5 | below the threshold | below the threshold | 4.21 | 4.58 | 5.04 | below the threshold | below the threshold | below the threshold | below the threshold | below the threshold | 3.59 | below the threshold | below the threshold | below the threshold | 4.26 | below the threshold | PTPDLPQTRV [KLHDC7A, Q5VTJ3] | pKd (DVL3, Q92997): below the threshold; pKd (SNTG2, Q9NY99): 5.24; pKd (NHERF4_1, Q86UT5-2): below the threshold; pKd (GRIP1_4, Q9Y3R0): below the threshold; pKd (HTRA2, O43464): below the threshold; pKd (NHERF4_4, Q86UT5): below the threshold; pKd (DLG1_2, Q12959): 3.53; pKd (FRMPD2_3, Q68DX3): below the threshold
